Drawing on patent US20200223921A1 (TRUEBINDING, published 2020), this text covers fold of MFI over isotype control antibody, binding result and fold reduction in ELISA signal with 25 mM alpha-lactose against no lactose for 3 molecules.

A value given as a limit tells only on which side of the number the result lay.

B2: mouse TIM-3 Fc protein (R&D systems) (Fc fusion, UniProt Q8VIM0 20-191, looked up)
chain: RSLENAYVFEVGKNAYLPCSYTLSTPGALVPMCWGKGFCPWSQCTNELLRTDERNVTYQKSSRYQLKGDLNKGDVSLIIKNVTLDDHGTYCCRIQFPGLMNDKKLELKLDIKAAKVTPAQTAHGDSTTASPRTLTTERNGSETQTLVTLHNNNGTKISTWADEIKDSGETIR
notes: Bought; also called mTIM-3 Fc; mTIM-3-Fc; not shown: Fc

Assay [1] addresses mouse Gal3 (endogenous, on B16F10 tumor cells and RAW264.7 macrophages) (mouse) (UniProt P16110). As to the kind of experiment: flow cytometry on B16F10 cells, rat anti mouse Gal3 PE against control rat IgG PE. A general note: In flow cytometry, cells or beads pass a laser one at a time.
Assay [2] deals with B2. As to the kind of experiment: ELISA: plate coated with mGal3 at 10 ug/ml, mTIM-3 Fc (FIGS. 5A-5C). The procedure:
In FIG. 5A, different anti Gal3 antibodies, i.e. mGal3 polyclonal antibody (R&D sytems), mAb IMT001, mAb M3/38 (Thermofisher Scientific) (FIG. 5A), were added to well that has been coated with Gal3. The antibodies were incubated for 10 minutes and mouse TIM-3 Fc were then added to the plates and incubated for an additional one-hour incubation. Plates were then washed for three times and followed by incubation with anti human-IgG-HRP (Jackson ImmunoResearch) for 1 h at room temperature. The color was developed with TMB subtract (GeneTex, Irvine, Calif.) after three time washes with TBST and the reaction was terminated with 1N HCl. The optical density (OD) was read at 450 nm. The results were expressed as the average OD of duplicates±SD.
In FIG. 5B, mouse Gal3 protein (BioLegend) in PBS (groups 1 and 2) or PS (Sigma-Aldrich, St. Louis, Mo.) in ethanol (groups 3 and 4) were coated on the plates and incubated at 4° C. overnight. Anti mTIM-3 mouse antibodies, mAb RMT3-23 (Bio X cell), was added to the coated plates for groups 2 and 4 only. Secondary anti human-IgG-HRP antibody and substrates were added as described above to detect the binding of the mTIM-3 to mGal3 or PS. […]
For orientation: An ELISA detects its analyte on a solid surface through an enzyme-linked reagent.

Assay [3] addresses human Gal9 protein (R&D systems) (human) (UniProt O00182). As to the kind of experiment: ELISA: plate coated with hGal9, mTIM-3 Fc with or without 25 mM alpha-lactose.
Assay [4] deals with T1, Flag-tagged human Gal3 protein stably expressed on A20 cells (A20 Gal3 cells) (human, UniProt P17931 2-250).
T1 construct: Mouse B lymphoma A20 cells transfected with a construct encoding Flag-tagged human Gal3; also called A20 cells overexpressing human Gal3; hGal3; not shown: Flag tag
T1 sequence (P17931 2-250): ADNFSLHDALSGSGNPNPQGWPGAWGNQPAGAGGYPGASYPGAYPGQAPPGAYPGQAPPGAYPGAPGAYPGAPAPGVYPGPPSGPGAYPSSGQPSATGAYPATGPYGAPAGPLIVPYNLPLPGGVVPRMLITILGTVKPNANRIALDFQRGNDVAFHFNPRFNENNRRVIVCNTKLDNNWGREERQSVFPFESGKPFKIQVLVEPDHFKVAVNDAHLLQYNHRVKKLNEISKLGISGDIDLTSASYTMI
As to the kind of experiment: flow cytometry: mTIM-3 Fc on live A20 Gal3 cells, anti-hFc APC detection (FIG. 4B, row 2). The procedure: Flow cytometry analysis was performed to evaluate the binding between TIM-3 and Gal3 using A20 cells. A20 Gal3 cells were incubated with 10% FBS HBSS solution that contains with or without mouse TIM-3 Fc on ice for 20 minutes. There are five experimental groups: in group 1, A20 Gal3 cells were incubated without mTIM-3 Fc protein as control; in group 2, A20 Gal3 cells were incubated with mTIM-3 Fc protein; in groups 3, 4, 5, in addition to mTIM-3 Fc protein, anti-mouse TIM-3 polyclonal antibody (R&D System, Minneapolis, Minn.) (group 3), monoclonal antibody RMT3-23 (Bio X cell, West Lebanon, N.H.) (group 4), monoclonal antibody 215015 (R&D Systems) (group 5), were also added to test if these antibodies could block Gal3 and Tim3 binding. For blocking, cells were incubated with 10% FBS HBSS containing mentioned antibodies, then were added with 10% FBS HBSS containing mTIM-3 Fc for 20 min. Samples were centrifuged and pellet were added 10% FBS HBSS containing APC conjugated anti-hFc antibodies (Jackson ImmunoResearch, West Grove, Pa.) for 20 min. After spinning, live/dead cells were stained with Violet dead cell stain kit (Life Technologies). Stained cells were subjected to flow analysis.

human Gal9 protein (R&D systems) (human), sequence (O00182 other isoform, or with tags, fused parts or gaps limits assumed): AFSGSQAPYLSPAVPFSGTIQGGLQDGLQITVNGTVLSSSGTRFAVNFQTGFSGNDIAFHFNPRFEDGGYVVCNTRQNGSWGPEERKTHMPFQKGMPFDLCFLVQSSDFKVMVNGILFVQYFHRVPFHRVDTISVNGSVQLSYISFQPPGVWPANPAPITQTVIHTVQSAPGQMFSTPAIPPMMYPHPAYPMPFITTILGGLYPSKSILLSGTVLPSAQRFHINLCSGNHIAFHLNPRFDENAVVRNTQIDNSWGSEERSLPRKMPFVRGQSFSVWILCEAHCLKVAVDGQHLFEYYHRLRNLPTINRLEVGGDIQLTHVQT

“rat anti mouse Gal3 PE antibody (Thermo Fisher Scientific)” displayed a fold of MFI over isotype control antibody in assay [1] of 10 fold.

B1: mouse Gal3 protein (BioLegend) (ligand)
chain: ADSFSLNDALAGSGNPNPQGYPGAWGNQPGAGGYPGAAYPGAYPGQAPPGAYPGQAPPGAYPGQAPPSAYPGPTAPGAYPGPTAPGAYPGSTAPGAFPGQPGAPGAYPSAPGGYPAAGPYGVPAGPLTVPYDLPLPGGVMPRMLITIMGTVKPNANRIVLDFRRGNDVAFHFNPRFNENNRRVIVCNTKQDNNWGKEERQSAFPFESGKPFKIQVLVEADHFKVAVNDAHLLQYNHRMKNLREISQLGISGDITLTSANHAMI
notes: Bought recombinant protein coated on ELISA plates; also called mGal3
As to B1, the binding result in assay [2] was “binds”. For the molecule B2, the fold reduction in ELISA signal with 25 mM alpha-lactose against no lactose in assay [3] was > 10 fold. In addition, the binding result in assay [4] was “binds”.
